Reference: the DeepSol protein solubility set

Test: soluble on expression in E. coli; label from the status in PepcDB or PDB records

Row | Sequence | soluble on expression in E. coli
1 | MGSDKIHHHHHHMLGLKLPTDPRWVEIVETNIPEILTDHAYCEQKATTNAMYIVINFPEYTELVSDMIDLAQEELQHFKMVHDIIKKRGLVLGRARAAPYAGDIYAFMRKGHIRKYVLIDRLLFSALIEARSCERFRLLSEQISDPELKEFYRELMISEATHYTTFINYARKYSEGEDIDKRWQEFLAYEATVISKYGDNATMHG | not soluble
2 | MAHHHHHHMKPTKPLLYITGYGPFLEVTENPSATIAQSVAEQVRQSGEADVHHETLDVNLEAVSKYFNRLNESVTAHLEATHPENRVLLVNVGLHSREKEKVLRLEVRAFNELEGNPIDDELPLSTCKDSAFVKGCKLETTTALIEELNAIERNGSDHHEKPRWIISYDAGRYYCNYALYRGVKMQEALNSRVFAVFLHIVASTVVCMEEQVAQVRMLVSHLLKHMEAVE | soluble
3 | MAHHHHHHMGTLEAQTQGPGSMQMNMVETEPVQGCRDFPPETMRLRKYLFDVFHSTARKFGFEEYDSPVLESEELYIRKAGEEITEQMFNFITKGGHRVALRPEMTPSLARQLLAKGRSLLLPAKWYSIPQCWRYEAITRGRRREHYQWNMDIIGVKSVSSEVELVCAACTAMQSLGLSSKDVGVKINSRKILQTVVEQAGVSADKFAPVCVIVDKMEKLPREEVVAQLAAIGLESNVVDAITSTLSLKTIDEIAQRIGEEHEAVRELRDFITQIEAYGFGDWVIFDASVVRGLAYYTGIVFEGFDRDGNFRALCGGGRYDNLLTTYGSPTAVPCVGFGFGDCVIVELLNEKKLLPELHHVVDDLVIPFDETMRPHALSILRRLRDAGRSADIVFDKKKVVQAFNYADRIGALRAVLVAPDEWARGEVRVKMLREGAGREEGANERGIVLPVDKIV | soluble
4 | MERPQPDSMPQDLSEALKEATKEVHTQAENAEFMRNFQKGQVTRDGFKLVMASLYHIYVALEEEIERNKESPVFAPVYFPEELHRKAALEQDLAFWYGPRWQEVIPYTPAMQRYVKRLHEVGRTEPELLVAHAYTRYLGDLSGGQVLKKIAQKALDLPSSGEGLAFFTFPNIASATKFKQLYESRMNSLEMTPAVRQRVIEEAKTAFLLNIQLFEELQELLTHDTKDQSPSRA | soluble
5 | MSLDALTTLPIKKHTALLNRFPETRFVTQLAKKRASWIVFGHYLTPAQFEDMDFFTNRFNAILDMWKVGRYEVALMDGELTSEHETILKALELDYARIQDVPDLTKPGLIVLDMDSTAIQIECIDEIAKLAGVGEEVAEVTERAMQGELDFEQSLRLRVSKLKDAPEQILSQVRETLPLMPELPELVATLHAFGWKVAIASGGFTYFSDYLKEQLSLDYAQSNTLEIVSGKLTGQVLGEVVSAQTKADILLTLAQQYDVEIHNTVAVGDGANDLVMMAAAGLGVAYHAKPKVEAKAQTAVRFAGLGGVVCILSAALVAQQKLSWKSKEGHHHHHH | soluble
6 | MFSKLAHLQRFAVLSRGVHSSVASATSVATKKTVQGPPTSDDIFEREYKYGAHNYHPLPVALERGKGIYLWDVEGRKYFDFLSSISAVNQGHCHPKIVNALKSQVDKLTLTSRAFYNNVLGEYEEYITKLFNYHKVLPMNTGVEAGETACKLARKWGYTVKGIQKYKAKIVFAAGNFWGRTLSAISSSTDPTSYDGFGPFMPGFDIIPYNDLPALERALQDPNVAAFMVEPIQGEAGVVVPDPGYLMGVRELCTRHQVLFIADEIQTGLARTGRWLAVDYENVRPDIVLLGKALSGGLYPVSAVLCDDDIMLTIKPGEHGSTYGGNPLGCRVAIAALEVLEEENLAENADKLGIILRNELMKLPSDVVTAVRGKGLLNAIVIKETKDWDAWKVCLRLRDNGLLAKPTHGDIIRFAPPLVIKEDELRESIEIINKTILSF | soluble
7 | MGSDKIHHHHHHMGISNIKQLYSKWKSLQPLKPEDLKRWNDKFKLEFNYNSNHLEGNTLTYGQTKLLLMFGETSGNASLKDYEEMKAHNVGLEMIKQEAQDKERPLTESFIRELNRTILVQDYWKNAKTPDGQDIRMQIKVGEYKSRPNSVLTATGEVFSYASPEETPAFMTSLVDWYNLEADKGILTPVELAALLHYRYIRIHPFEDGNGRIARLLVNFVLHRYGYPMIVIHSEDKSNYLNILHQCDVEAGLTPSDGANATLNDILPFVNYLSSCLIRSLTLAIKAAKGESIEEEGDFDKKIAMLQRRYSDKAIEKSSRSVEQARSAFFELAVYVEQKISGLQKLFDRTFITNTPTWNMARKINTPNPDEPIIQSHILYTKSKEYSFVEDIIRLSKKSQVDYFKLKYDAVTFHFNHCRYAGDNTFDFPFCIYIQYLSDGCEISCDITSDSVKLSYNPDVLAEEGKEYMDTACNELLKLLEEKMNDKSPEN | not soluble
8 | MGKTLYEKVYDAHVAVAAEGETPILYIDRHLVHEVTSPQAFDGLREKGRKVRQVSKTFATMDHNVSTTTKDINASGEMARIQMETLSKNCEEFGVTLYDLNHKYQGIVHVMGPELGITLPGMTIVCGDSHTATHGAFGSLAFGIGTSEVEHVLATQTLKQARAKT | not soluble
9 | MDILKKIEKYREEEQRLKWEGTFADYLEIIKENPMVAQSAHSRVFNMIKDSGIEEIDGRKKYSFFDRELFGLEESLERLVEEYFHPAAKRLDVRKRILLLMGPVSGGKSTLVTMLKKGLEAYTLTDNGAVYAIKGCPMHEDPLHLIPHHLRDDFYREYGIRIEGSLSPLNVMRLEEEYGGRIEDVKVERIFFSEDKRTGIGTFSPSDPKSQDIADLTGSIDFSTIAEYGSESDPRAYRFDGELNKANRGMMEFQEMLKCDEKFLWHLLSLTQEGNFKAGRFALISADELIVAHTNETEYRSFISNKKNEALHSRIIVMPVPYNLKVSEEERIYEKMIAESDVADVHIAPHTLKVAAMFSILTRLKEPKRSD | not soluble
10 | MTTPLAQRIKSLIRLNGPLSVTDFFSLCLADPEHGYYKSREPFGRSGDFITAPEVSQLFGEMLGVFVVHAWQRHGAPAQTQLVEIGPGRGTMMSDMLRVIRRIAPPLYETMRVHLVETSPRLSAIQKETLTAHADRLTWHDSFDDVPEGFLLLVANELFDAIPIRQFVRTPQGFRERVVSLDANGELVFSTGLAGIDPTLLPPQPERQQLGTVFEVSPAREAVMTAICQRLSVHGGTALAIDYGHLVAGYGDTLQAMRNHAFDPPLAHPGEADLTSHVDFESLVKTAQATGVHVNGALRQGDFLHGLGLKERASALAAKATPDQTLEIAEAVNRLAGEGAGKMGELFKVIAVSSPALHLLPFRAVDLEHHHHHH | soluble
11 | METKEAIIHVIVATAEWGKDQLRYRRHRLAEFLAAQEETKEVIWVCPAPRAQGKEFQEVHSGIRQFAVKDLLQKKMFRFGRYTDVFYRHKLSPLLDELTPASANGERCCLWYTFPGFPLLSSLYSWDQVIYDCSDLWAAPISGRSNLLSEFRRKVIKSAELRIIQRADSITCSSDYLHKEVDKKLTAGREKVHTVENGVEYELFSANKQAPDRSILQGREGIVLGFIGGIKPKLDFKMIKEAALQKPDWTFLWVGPDATNGDVSFQELLRLPNVIWTGPADPKEVPHYMELIDIGIMPYKQSPYNQAVFPLKLFEFLAAGKPVVGTNLPSTSKMQKPYVYEYVEGDHPIDFIAACEKVLGQNGDETYKEMRRNIARTQDWNCLFRQIMKYTGIQKHAMAGDPLEHHHHHH | not soluble
12 | MGSDKIHHHHHHMSSIIAALTYFFKEVLVFVSYVKNNAFPQPLSKEEERHYLKRMAEGDEEARNRLIEHNLRLVAHIVKKFENTREHTEDLISIGTIGLIKAIESFSEGKGTKLATYAARCIENEILMHLRALKKVKKDVSLHDPIGTDKEGNEITLIDVLQEDSEDIADSIQLKMEKKQIYEYIHVLDDREKEVIVGRFGLDLEEERTQREIAKELGISRSYVSRIEKRALMKLFHEFYKHNHGKG | not soluble
13 | MGSDKIHHHHHHMKTAILDRFVFSDEVRDIIENAPEIIIPESRKEILDLAIAGRDLFEVGYEVPGKGFVVEATVTRCKNGLVVNYPEPYMRRRDPNALVVGDNLETDKPRFRERFGKEFEPIRQETFEWLKKQELILLPFMAGGYDYGYPAVLIAPKNAGFFVGGLADLQFFVPASEVPENFKPKLYMFLAPPFRHTHFDGKQVVVHYRHNSHYEIFSYNLYPGPSAKKGVYGFLLHVGEKEKWVTAHASAVKVITPYENELVIMHEGASGGGKSEILEEIHREPDGRIKLAENIVTGEKFYMELKQSCVLMPVADDMFMCHPKLQTGKKLVAKDAEAGWFIRVDHITEYGSAPDLERLTIHPPEPLIFLNIYAVPNSTALIWEHIEDEPGKPCPNPRVIIPKRFMKNAVSEPVKVDVRSFGVRTPPCTKEKPTYGIVGLMQILPPALAWLWRLVAPRGHANPSIVSTKGMTSEGVGSFWPFSSGKMVRLANILLEQIIDTPETRYILVPNQYIGAYKVGFMPEWIAREYLSRRGGVRFRPDQLVPSKCSLLGFSLKEMKIEGNTIPKELLQPHLQSEVGEEAYEKGAQELKDFFKRELKKFLTEDLNPVGREIIQCCLDDGSLDDYLKIIPMNF | not soluble
14 | MDTIIYYSEMEGISLEHLKRSSGYDMRSNHFHNEYEIYFLTEGERLFFFNNRAYQVKKGSLILVDTNLIHMTHAPEDDTTGYTRIILYIDKFKMQQFDEKFPHLNLVPFFREHYGVYNLTQKQQEKFLHMYEVLKTEFSNRSRSYKALIEMEIIHYFIDFIRDNPELTPIKDETAIHKSSKYQ | not soluble
15 | MLKDEYGRVVTNLRIAVTKKCNLRCFYCHKEGESNPGEEISAERIVEIARAFKELGVRKLKITGGEPLLRKDLPDIILNLPEFEEISMTTNGILLEKYAEELRECGLSRVNVSLDTLDAEKYRWITGGGEVQKVVNGIEKACEVGLTPVKINMLVLGGVNDNEVDELLEFTNSFNRGNTKAILQVIELVPFPGFEKYFFDISTIEEKYARMATQRRVRAMHRRTQYFTPKGVIEFVKPMDNTAFCMHCNRMRVTSDGKLKPCLLRNETITIDGKHGEELARAIIETVRKREPYFKG | not soluble
16 | MNAAEVIVYEHVNFGGKSFDATSDQPGAGDNLNDKISSIKVKSGTWRFYEYINYGGRYWDLGPGEYSSVESAGIPDNSISSFRQI | soluble
17 | MPMVVAKRNARERTRVHTVNQAFLVLKQHLPSLRQFTKRVSKLRILNAAITYIDTLLKLIQSSEAVPQSVISATLGPIVPTPVRAVHKISKPDTVISQPIRPLAPVLPRHETYLPAPIAATCAPDHSLVDYRSTFASSLAPPVPMQMPSVFSPQPTFPYMKSLLDYPTYFYQPSTAPPPPPAPTAPQSHLIVNNQLVPMPSYQCF | not soluble
18 | MSLVRSKAPLRLGLAGGGSDVSPYSDIYGGLILNATINLYAYCTIEETNSGRIEINAYDAQCCKSYLSMSQLEIDGEASLIKGVYNRIIRDYRLEPKSFKITTYNDAPAGSGLGTSSTMVVCILKAFIEWLSLPLGDYETSRLAYEIERKDLGLSGGKQDQYAAAFGGFNYMEFLQNDLVIVNPLKMKRWIVDELESSMVLYFTGRSRSSAAIINEQKKNTSEGNQTAIEAMHKIKQSAIDTKLALLKGDVGEFARILGEGWENKKKMAGAITNPMIQEAFDVATGAGAMAGKVSGAGGGGFIMFVVEPTRKEEVVRALNNLNGFVMPFQFIDDGAHGWKIYSTDKVQKEGHHHHHH | soluble
19 | MNYAFVVQARLGSTRLPGKILKPFYGNQSILDLMVHKLSAISNIPVIIATTNSVINEPIEKKALALGVKCFRGEENDVLKRFIDVAEYFDIQGIFRICSDNPFLDVHAARQLVEIAMKSCNDYISFDIDGTPSIKTHFGFWGEFVTLDALKRVIGFTDDLLYREHVTNYIYSHPELFNIQWISGSPVVSKHHNIRLTIDTLEDFSVAQRIYRDLQEKRVEISIEVIVDYVRRHAEYIQLMKQQIKKNSKLEHHHHHH | soluble
